The assay addresses SgcC5 (unlabelled) (Streptomyces globisporus). Description: SEC.

Usually stoichiometry N stands for a count of units in the complex or per binding partner.

SgcC5 (unlabelled) (enzyme) came in with a stoichiometry N of 2.

These data come from publication PMC6219380.
